Results: patent US20260097113A1 (Pfizer, published 2026)
Numbering of substitutions follows the chain as printed.

T1: RSV F protein of subtype A comprising a polypeptide of SEQ ID NO: 1 and a polypeptide of SEQ ID NO: 2 (RSV subtype A, UniProt P11209 137-513; P03420 26-109)
T1 construct: Stabilized prefusion F trimer made of three F2-F1 heterodimers; Produced recombinantly in CHO cells; also called RSV A; RSVA
T1 chain 1: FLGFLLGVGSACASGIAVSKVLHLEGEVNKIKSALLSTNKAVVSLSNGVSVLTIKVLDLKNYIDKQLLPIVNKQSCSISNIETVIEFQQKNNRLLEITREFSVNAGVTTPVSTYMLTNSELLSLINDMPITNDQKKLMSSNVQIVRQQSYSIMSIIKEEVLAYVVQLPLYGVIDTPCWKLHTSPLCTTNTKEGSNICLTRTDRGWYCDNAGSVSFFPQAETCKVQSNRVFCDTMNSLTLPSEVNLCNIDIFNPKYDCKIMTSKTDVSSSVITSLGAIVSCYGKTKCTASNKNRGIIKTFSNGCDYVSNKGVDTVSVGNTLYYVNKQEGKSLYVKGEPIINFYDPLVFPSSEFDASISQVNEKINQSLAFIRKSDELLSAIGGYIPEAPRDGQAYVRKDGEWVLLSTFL
T1 chain 2: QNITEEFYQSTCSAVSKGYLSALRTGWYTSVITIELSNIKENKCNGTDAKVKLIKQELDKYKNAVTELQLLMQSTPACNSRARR

T2: RSV F protein comprising a polypeptide of SEQ ID NO: 3 and a polypeptide of SEQ ID NO: 4 (RSV subtype B, UniProt O36634 137-513; O36634 26-109)
T2 construct: also called RSV B; RSVB
T2 chain 1: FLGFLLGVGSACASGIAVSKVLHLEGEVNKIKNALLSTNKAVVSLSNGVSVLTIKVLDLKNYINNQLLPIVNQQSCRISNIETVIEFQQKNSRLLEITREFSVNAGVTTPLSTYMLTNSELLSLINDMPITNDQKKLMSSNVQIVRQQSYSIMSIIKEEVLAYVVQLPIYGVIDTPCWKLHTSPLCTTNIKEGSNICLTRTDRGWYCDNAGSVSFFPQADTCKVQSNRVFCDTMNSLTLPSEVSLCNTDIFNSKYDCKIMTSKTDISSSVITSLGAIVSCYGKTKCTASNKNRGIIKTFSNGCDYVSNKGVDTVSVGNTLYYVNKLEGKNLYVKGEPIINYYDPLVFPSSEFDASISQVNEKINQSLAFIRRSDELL
T2 chain 2: T1 chain 2 with K17R, L20F, N42T, A49T, S74N, S80N

B1: AM14 (trimeric prefusion specific antibody of the AM14 ELISA) (antibody, V domains shown)
VH: EVQLVESGGGVVQPGRSLRLSCAASGFSFSHYAMHWVRQAPGKGLEWVAVISYDGENTYYADSVKGRFSISRDNSKNTVSLQMNSLRPEDTALYYCARDRIVDDYYYYGMDVWGQGATVTVSS
VL: DIQMTQSPSSLSASVGDRVTITCQASQDIKKYLNWYHQKPGKVPELLMHDASNLETGVPSRFSGRGSGTDFTLTISSLQPEDIGTYYCQQYDNLPPLTFGGGTKVEIKR
notes: Antibody as used in the AM14 ELISA, detected with an HRP-labeled secondary antibody

What was measured:
[1] = target: RSV A + RSV B bivalent composition (RSV subtype A; RSV subtype B); test: AM14 Fab titration by SEC; Low-Fast cycle; T0
[2] = target: RSV A + RSV B bivalent composition (RSV subtype A; RSV subtype B); test: AM14 Fab titration by SEC; Low-Fast cycle; 8 M 25°C
[3] = target: RSV A + RSV B bivalent composition (RSV subtype A; RSV subtype B); test: AM14 Fab titration by SEC; High-Slow 1 cycle; 3 M 2-8°C
[4] = target: RSV A + RSV B bivalent composition (RSV subtype A; RSV subtype B); test: AM14 Fab titration by SEC; Low-Fast cycle; T0 (second value)
[5] = target: RSV A + RSV B bivalent composition (RSV subtype A; RSV subtype B); test: AM14 Fab titration by SEC; Low-Fast cycle; 1 M 25°C (second value)
[6] = target: RSV A + RSV B bivalent composition (RSV subtype A; RSV subtype B); test: AM14 Fab titration by SEC; Low-Fast cycle; 1 M 40°C (second value)
[7] = target: T1, RSV F protein of subtype A comprising a …; test: AM14 ELISA; F8 (pH 7, 50 mM NaCl, 0% sucrose); T0
[8] = target: T1, RSV F protein of subtype A comprising a …; test: AM14 ELISA; F13 (pH 7, 100 mM NaCl, 4.5% sucrose); T0
[9] = target: T1, RSV F protein of subtype A comprising a …; test: AM14 ELISA; F2 (pH 8, 0 mM NaCl, 0% sucrose); 2 wk 5°C
[10] = target: T1, RSV F protein of subtype A comprising a …; test: AM14 ELISA; F3 (pH 8, 0 mM NaCl, 9% sucrose); 2 wk 25°C
[11] = target: T1, RSV F protein of subtype A comprising a …; test: AM14 ELISA; F14 (pH 7, 50 mM NaCl, 4.5% sucrose); 2 wk 5°C
[12] = target: T1, RSV F protein of subtype A comprising a …; test: AM14 ELISA; F13 (pH 7, 100 mM NaCl, 4.5% sucrose); 2 wk 5°C
[13] = target: T1, RSV F protein of subtype A comprising a …; test: AM14 ELISA; F12 (pH 8, 100 mM NaCl, 9.0% sucrose); 1 wk 25°C
[14] = target: T1, RSV F protein of subtype A comprising a …; test: AM14 ELISA; F18 (pH 7, 50 mM NaCl, 3% sucrose + 3% mannitol); 1 wk 5°C
[15] = target: T2, RSV F protein comprising a polypeptide …; test: AM14 prefusion assay relative to standard; RSV B 480 µg/mL, 2% sucrose + 4% mannitol; pre-lyo

| Molecule | Prefusion Content (%) [1] [%] | Prefusion Content (%) [2] [%] | Prefusion Content (%) [3] [%] | Prefusion Content (%) [4] [%] | Prefusion Content (%) [5] [%] | Prefusion Content (%) [6] [%] | AM14 prefusion content (%), relative to standard [7] [%] | AM14 prefusion content (%), relative to standard [8] [%] | AM14 prefusion content (%), relative to standard [9] [%] | AM14 prefusion content (%), relative to standard [10] [%] | AM14 prefusion content (%), relative to standard [11] [%] | AM14 prefusion content (%), relative to standard [12] [%] | AM14 prefusion content (%), relative to standard [13] [%] | AM14 prefusion content (%), relative to standard [14] [%] | AM14 prefusion content (%), relative to standard [15] [%] |
| --- | --- | --- | --- | --- | --- | --- | --- | --- | --- | --- | --- | --- | --- | --- | --- |
| AM14 Fab | 76 | 76 | 49 | 82 | 71 | 70 | – | – | – | – | – | – | – | – | – |
| B1 | – | – | – | – | – | – | 100 | 97 | 75 | 72 | 78 | 75 | 82 | 56 | 90 |
